Data on 2 molecules can be found in US20050238685A1 (published 2005).

Experiment [1] deals with T1, bovine pancreas trypsin (bovine, UniProt P00760 24-246).
T1 construct: Bought enzyme; also called 25 kD trypsin (bovine pancreas)
The experiment is described as follows: enzyme on SC3-coated TEFLON, rinsed; activity by spectrophotometry, constant after removal of the surface.
Protocol: The surface was first coated with SC3 hydrophobin by immersion in the protein aqueous solution (0.3 mg/mL) during approximately 30 minutes. The obtained modified surface was then immersed in an aqueous enzyme solution during approximately 30 minutes. After each step, the TEFLON™ surface was rinsed with an adequate buffer solution. […] The functionalized TEFLON® was stored at 4° C. in an Eppendorf tube containing a buffer solution.

For experiment [2], the target named is BSA (bovine serum albumin) (bovine, UniProt P02769 25-607). In words: protein on hydrophobin-coated TEFLON sheets, rinsed; TFA extraction and SDS-PAGE.
Sequence of BSA (bovine serum albumin) (P02769 25-607 limits assumed): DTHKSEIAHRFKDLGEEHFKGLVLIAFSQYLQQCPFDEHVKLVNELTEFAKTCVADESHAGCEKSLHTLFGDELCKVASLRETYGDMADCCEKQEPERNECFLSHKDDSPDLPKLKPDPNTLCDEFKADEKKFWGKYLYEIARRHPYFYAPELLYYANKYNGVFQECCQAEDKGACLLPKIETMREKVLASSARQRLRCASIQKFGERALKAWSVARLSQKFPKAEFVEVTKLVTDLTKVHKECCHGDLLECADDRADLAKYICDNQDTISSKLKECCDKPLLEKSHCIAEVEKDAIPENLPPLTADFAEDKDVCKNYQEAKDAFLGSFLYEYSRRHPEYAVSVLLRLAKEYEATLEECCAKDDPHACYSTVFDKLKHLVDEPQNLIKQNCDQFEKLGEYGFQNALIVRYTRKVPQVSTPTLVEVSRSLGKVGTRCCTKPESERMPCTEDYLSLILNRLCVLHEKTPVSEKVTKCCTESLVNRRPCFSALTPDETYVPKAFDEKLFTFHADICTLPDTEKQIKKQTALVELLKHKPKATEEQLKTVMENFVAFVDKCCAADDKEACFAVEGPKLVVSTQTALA
Description: BSA (bovine serum albumin) and fibronectin were immobilized on coated TEFLON™ sheets. […] The sheets were removed from the hydrophobin solution and were immediately washed with large amounts of water to remove any unbound hydrophobin. […] The presence of BSA or fibronectin on bare and coated TEFLON™ was detected extracting all protein with TFA, evaporating the TFA and loading the sample on SDS-PAGE and staining according to standard procedures.
The target in experiment [3] is T1, bovine pancreas trypsin. The experiment is described as follows: enzyme on hydrophobin-coated sheets, washed; chromogenic assay.

T1 sequence (P00760 24-246): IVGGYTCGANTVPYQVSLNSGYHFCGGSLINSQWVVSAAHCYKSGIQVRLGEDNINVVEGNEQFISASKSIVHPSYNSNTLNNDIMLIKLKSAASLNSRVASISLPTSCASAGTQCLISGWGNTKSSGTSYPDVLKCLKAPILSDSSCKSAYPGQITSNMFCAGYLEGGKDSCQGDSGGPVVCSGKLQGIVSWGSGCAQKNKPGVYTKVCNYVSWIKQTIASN

B1: SC3 hydrophobin of Schizophyllum commune (other, UniProt P16933 25-136, looked up)
chain: GGHPGTTTPPVTTTVTVTTPPSTTTIAAGGTCTTGSLSCCNQVQSASSSPVTALLGLLGIVLSDLNVLVGISCSPLTVIGVGGSGCSAQTVCCENTQFNGLINIGCTPINIL
notes: Used as a self-assembled film (alpha-helix state or beta-sheet state) coated on TEFLON, polyethylene, glass, microtiter wells or oil droplets; Natural SC3 is glycosylated (mannose) at its N-terminal side; also called hydrophobin SC3
For the molecule B1, the binding result in experiment [1] and in experiment [2] was “binds” throughout.

B2: SC4 hydrophobin of Schizophyllum commune (other)
chain: AGQACNSGPVQCCNETTTVANAQKQGLLGGLLGVVVGPITGLVGLNCSPISVVGVLTGNSCTAQTVCCDHVTQNGLVNVGCTPISL
As to B2, the binding result in experiment [3] was “binds”.
